# Measured values taken from patent US20250197448A1, “CYCLOPEPTIBODIES AND USES THEREOF” (University of Rochester, priority 2022, published 2025).
# Entries after “also recorded” stand apart in the source; their conditions may differ. Starred links: 1 amine or outer side, 2 acyl side, 3 side chain; linkers in the order of their positions; H or OH if unused. Positions of bridges follow the written chain, without caps; N, C: chain ends. Non-standard residues stand in square brackets, D forms with d. No end group written: not given here. O2beY = O-(2-bromoethyl)-tyrosine (p-2beF), reacts with Cys to form a thioether, O=C([C@H](Cc1ccc(OCCBr)cc1)N[*:1])[*:2]; pCaaF = p-(2-chloroacetamido)-phenylalanine, O=C(CCl)Nc1ccc(C[C@H](N[*:1])C(=O)[*:2])cc1
# Experiments:
# [1] = serum stability assay in human blood serum; type: in vitro ADME
# Procedure: The proteolytic stability of cyclopeptibodies cCLP003-Tras-Fc and L2-m5-Tras-Fc were assessed by incubating these proteins in human blood serum, followed by measurement of the cyclopeptibody activity using an in vitro binding assay with plate-immobilized PD-L1 or Sh as described in Example 7 and 8, respectively.
# Serum stability Assay. The human male serum (Sigma-Aldrich) was clarified by centrifugation at 14 000 rpm for 15 min. 50% serum was prepared in phosphate-buffered saline (pH 7.4), then incubated at 37° C. Cyclopeptiodies were dissolved in 30 μL of 50% serum at a final concentration of 1 μM, incubated at 37° C. Serum samples with diluted cyclopeptibodies were prepared in the same way described above over a time course of 30 h for cCLP003-Tras-Fc-His and 24 h for L2-m5-Tras-Fc-His, followed by incubated at 37° C. Intact cyclopeptibodies in serum were quantified using the binding assay described above. In the assay, immobilized PD-L1 or Shh was incubated with 100 μL of serum samples diluted with PBS (1:10 dilution for cCLP003-Tras-Fc-His, 1:100 dilution for L2-m5-Tras-Fc-His). Intact cyclopeptibody in each sample was detected with HRP-conjugate mouse anti-FLAG polyclonal antibody. The absolute concentration of intact cyclopeptibody in each serum sample was quantified using a calibration curve, which was generated from a binding assay in which immobilized PD-L1 or Shh was incubated with cyclopeptibody in serial dilution (0-100 nM for cCLP003-Tras-Fc-His; 0-10 nM for L2-m5-Tras-Fc-His), followed by detected with HRP-conjugate mouse anti-FLAG polyclonal antibody, absorbance at 450 nm was measured as a function of cyclopeptibody concentration.
# [2] = target: T1, integrin αvβ3 on MDA-MB-231 cells (Homo sapiens, UniProt P05106+P06756); assay: flow cytometry of MDA-MB-231 cells, integrin receptor labeling; type: cell-based; settings: for labeling of integrin receptors on MDA-MB-231 cells (in words): FITC anti-IgG1 Fc detection
# T1 construct: known to express high levels of integrin αvβ3 on their surface; endogenous in cells; host or cells: MDA-MB-231
# Procedure: Flow Cytometry Analysis. Cell line MDA-MB-231 was grown in culture to reach confluency. When confluent, media was aspirated, cells were washed once with 1×DPBS (no calcium, no magnesium) (Gibco). Adherent cells were detached from the petri dish with 1 mL of accutase (Gibco) pre-warmed to 37° C., followed by incubated for 5 min at 37° C. Cells were spun down using centrifugation. Supernatant was removed and cells were washed three times with staining buffer (1×PBS with 0.5% BSA). Cells were resuspended in Eppendorf tubes in 100 μL PBS at a concentration of […]. Cyclopeptibodies or Human anti-PD-L1 antibody (1 μg) (R&D Systems, MAB10355) in staining buffer were then added to the tubes with a concentration of 1.5 μM in 200 μL. Eppendorf tubes were then placed on the platform shaker for gently shaking for 1 hour at room temperature. After 1 hour, cells were spun down using centrifugation, then supernatant was removed. After washing three times, cells were resuspended in 200 μL of Fluorescein (FITC) AffiniPure Goat Anti-Human IgG with working concentration of 30 μg/mL (Jackson ImmunoResearch, 109-095-098), incubated in the dark for 30 min at room temperature. Cells were washed as described above, then resuspended in 400 μL staining buffer. Then cells were analyzed on a BD FACS Accuri C6^+ using a filter of 533/30. The cells of interest were gated using Forward and Side scatter (FSC/SSC). 10,000 singlet events were collected for each specimen.
# After purification as described in Example 2, these cyclopeptibodies were used to treat breast cancer cells (MDA-MB-231), which are known to express high levels of integrin αvβ3 on their surface. The cyclopeptibody treated cells were then analyzed by flow cytometry using a procedure similar to that described for the PD-L1-targeting cyclopeptibodies in Example 9.
# streptavidin = target: T2, streptavidin (Streptomyces avidinii, UniProt P22629); assay: in vitro streptavidin binding assay (streptavidin-coated plates, anti-FLAG HRP detection)
# T2 construct: purchased Sigma-Aldrich
# Text: To prepare a cyclopeptibody capable of binding the protein streptavidin, a cyclic streptavidin-binding peptide previously discovered via phage display (Owens et al, ACS Cent Sci. (2020); 6(3):368-381) was genetically fused to the Fc domain of human IgG1 via a spacer (Entry 1, Table 1). The resulting cyclopeptibody (called Strep-m3-Tras-Fc) was expressed, purified, and characterized as described in Example 4. This construct was confirmed to contain the cyclic peptide constrained via O2beY/Cys thioether (i/i-8) linkage, where ‘i’ indicates the position of the non-canonical amino acid O2beY (also refereed to herein as p-2beF). […]
# Streptavidin Binding Assay. […] After washing three times with wash buffer, 100 μL of 2.2 mM o-phenylenediamine dihydrochloride, 4.2 mM urea hydrogen peroxide, 100 mM dibasic sodium phosphate, and 50 mM sodium citrate, pH 5.0, were added to each well, followed by measurement of the absorbance at 450 nm after 10-20 min using a Tecan Infinite 1000 plate reader. Equilibrium dissociation constants (Kp) were determined by fitting the dose-response curves to a 1:1 binding isotherm equation via nonlinear regression. using SigmaPlot. Mean values and standard deviations were calculated from experiments performed in triplicate.
# PD-1/PD-L1 interaction = target: T3, PD-1/PD-L1 interaction (Homo sapiens, UniProt Q9NZQ7); assay: PD-L1 competition assay with biotinylated PD-1; type: binding
# T3 construct: poly-histidine (C); made in house; PD-1 co-expressed with BirA
# Procedure: Next, we examined the ability of the cyclopeptibody cCLP003-Tras-Fc to inhibit the PD-1/PD-L1 interaction using a competition assay with recombinant biotinylated PD-1 (Bio-PD-1). Briefly, PD-L1 immobilized on a plate was incubated with Bio-PD-1 and varying concentrations of cCLP003-Tras-Fc or control Fc. The PD-L1-bound PD-1 was then quantified colorimetrically (OD450) using horseradish peroxidase (HRP)-conjugated streptavidin.
# PD-L1 Competition Assay. PD-L1 was immobilized on microtiter plates as described above. followed by decanting the protein solution and blocking with 0.5% bovine serum albumin in PBS for 2 h at room temperature. After washing, each well was incubated with 100 μL of serial dilutions of cCLP003-Tras-Fc-His for 1 hour at room temperature. Biotinylated PD-1 (500 nM) was added and incubated for 1 h at room temperature. After washing, the bound PD-1 was quantified by means of HRP-conjugate Streptavidin and colorimetric assay as described above. The inhibitory constant (IC50) was determined by fitting the dose-response curves to a 4-parameter equation via nonlinear regression using SigmaPlot. Mean values and standard deviations were calculated from experiments performed in triplicate.
# [3] = target: T4, PD-L1 receptor on MDA-MB-231 cells (Homo sapiens, UniProt Q9NZQ7); assay: flow cytometry of MDA-MB-231 cells, PD-L1 labeling with FITC anti-human IgG Fc; type: cell-based; settings: concentration not given at the place
# T4 construct: known to express high levels of PD-L1 on their surface; endogenous in cells; host or cells: MDA-MB-231
# Procedure: The cells were then incubated with fluorescein-conjugated anti-human IgG Fc antibody and analyzed by flow cytometry. The same experiment was carried out in parallel using commercially available anti-PD-L1 antibody as positive control and various negative controls.
# Flow Cytometry Analysis. […] When confluent, media was aspirated, cells were washed once with 1×DPBS (no calcium, no magnesium) (Gibco). Adherent cells were detached from the petri dish with 1 mL of accutase (Gibco) pre-warmed to 37° C., followed by incubated for 5 min at 37° C. Cells were spun down using centrifugation. Supernatant was removed and cells were washed three times with staining buffer (1×PBS with 0.5% BSA). Cells were resuspended in Eppendorf tubes in 100 μL PBS at a concentration of 107cells per mL. […] Eppendorf tubes were then placed on the platform shaker for gently shaking for 1 hour at room temperature. After 1 hour, cells were spun down using centrifugation, then supernatant was removed. […] Cells were washed as described above, then resuspended in 400 μL staining buffer. […] The cells of interest were gated using Forward and Side scatter (FSC/SSC). 10,000 singlet events were collected for each specimen.
# Sonic Hedgehog (Shh) = Sonic Hedgehog (Shh) (Homo sapiens, UniProt Q15465); assay: in vitro Shh binding assay (plate-immobilized Shh)
# Procedure: Streptavidin Binding Assay. For the streptavidin binding assays, streptavidin-coated plates (Sigma-Aldrich) were used. For the Keap1, Shh and PD-L1 binding assay, target protein was immobilized on microtiter plates by incubating 100 μL of a 4 μM protein solution in PBS buffer overnight at 4° C., followed by decanting the protein solution and blocking with 0.5% bovine serum albumin in PBS for 2 h at room temperature. After washing (3×150 μL of PBS with 0.05% Tween-20), each well was incubated with 100 μL of purified FLAG-tagged cyclopeptibody at varying concentrations for 1 hour at room temperature. After washing three times with wash buffer, each well was incubated with 100 μL of 1:2500 dilution of HRP-conjugate mouse anti-FLAG polyclonal antibody (Sigma-Aldrich) for 1 hour at room temperature. After washing three times with wash buffer, 100 μL of 2.2 mM o-phenylenediamine dihydrochloride, 4.2 mM urea hydrogen peroxide, 100 mM dibasic sodium phosphate, and 50 mM sodium citrate, pH 5.0, were added to each well, followed by measurement of the absorbance at 450 nm after 10-20 min using a Tecan Infinite 1000 plate reader. Equilibrium dissociation constants (Kp) were determined by fitting the dose-response curves to a 1:1 binding isotherm equation via nonlinear regression. using SigmaPlot. Mean values and standard deviations were calculated from experiments performed in triplicate. […]
# T4 sequence (Q9NZQ7 19-290): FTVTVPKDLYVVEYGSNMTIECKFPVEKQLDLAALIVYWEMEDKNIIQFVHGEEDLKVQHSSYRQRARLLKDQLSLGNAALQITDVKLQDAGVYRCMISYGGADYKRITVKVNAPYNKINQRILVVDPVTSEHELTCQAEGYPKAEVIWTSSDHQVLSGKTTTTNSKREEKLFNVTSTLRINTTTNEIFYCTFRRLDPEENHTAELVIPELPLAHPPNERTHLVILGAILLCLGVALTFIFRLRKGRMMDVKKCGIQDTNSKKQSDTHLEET
# T1 sequence (P06756 31-889 limits assumed): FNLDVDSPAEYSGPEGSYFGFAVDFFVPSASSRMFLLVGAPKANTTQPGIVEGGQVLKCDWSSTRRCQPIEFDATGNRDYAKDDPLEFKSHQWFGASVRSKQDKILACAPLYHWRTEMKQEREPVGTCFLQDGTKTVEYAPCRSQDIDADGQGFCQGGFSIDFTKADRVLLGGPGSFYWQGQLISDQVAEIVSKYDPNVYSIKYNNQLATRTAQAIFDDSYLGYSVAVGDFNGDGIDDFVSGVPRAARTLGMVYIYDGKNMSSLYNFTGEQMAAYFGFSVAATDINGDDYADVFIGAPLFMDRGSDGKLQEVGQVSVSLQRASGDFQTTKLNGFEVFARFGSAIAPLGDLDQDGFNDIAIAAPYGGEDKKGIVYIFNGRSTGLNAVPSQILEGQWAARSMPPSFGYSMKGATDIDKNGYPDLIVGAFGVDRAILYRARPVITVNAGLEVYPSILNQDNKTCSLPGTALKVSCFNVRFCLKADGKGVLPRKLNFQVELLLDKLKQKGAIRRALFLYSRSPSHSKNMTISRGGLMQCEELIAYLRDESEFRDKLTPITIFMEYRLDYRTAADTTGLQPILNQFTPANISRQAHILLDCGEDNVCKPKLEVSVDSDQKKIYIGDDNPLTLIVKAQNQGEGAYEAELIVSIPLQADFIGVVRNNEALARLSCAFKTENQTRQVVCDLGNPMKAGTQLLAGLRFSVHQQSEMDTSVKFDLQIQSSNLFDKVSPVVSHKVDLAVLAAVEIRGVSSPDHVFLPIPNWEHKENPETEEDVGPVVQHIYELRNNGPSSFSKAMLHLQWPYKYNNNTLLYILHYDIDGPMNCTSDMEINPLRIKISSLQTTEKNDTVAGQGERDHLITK
# T1 sequence (P06756 891-1048 partner limits assumed): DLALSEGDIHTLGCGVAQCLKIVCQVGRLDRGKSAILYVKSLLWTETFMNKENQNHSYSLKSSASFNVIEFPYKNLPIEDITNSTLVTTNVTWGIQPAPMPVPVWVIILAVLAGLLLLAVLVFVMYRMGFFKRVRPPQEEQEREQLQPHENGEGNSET
# T1 sequence (P05106 27-788): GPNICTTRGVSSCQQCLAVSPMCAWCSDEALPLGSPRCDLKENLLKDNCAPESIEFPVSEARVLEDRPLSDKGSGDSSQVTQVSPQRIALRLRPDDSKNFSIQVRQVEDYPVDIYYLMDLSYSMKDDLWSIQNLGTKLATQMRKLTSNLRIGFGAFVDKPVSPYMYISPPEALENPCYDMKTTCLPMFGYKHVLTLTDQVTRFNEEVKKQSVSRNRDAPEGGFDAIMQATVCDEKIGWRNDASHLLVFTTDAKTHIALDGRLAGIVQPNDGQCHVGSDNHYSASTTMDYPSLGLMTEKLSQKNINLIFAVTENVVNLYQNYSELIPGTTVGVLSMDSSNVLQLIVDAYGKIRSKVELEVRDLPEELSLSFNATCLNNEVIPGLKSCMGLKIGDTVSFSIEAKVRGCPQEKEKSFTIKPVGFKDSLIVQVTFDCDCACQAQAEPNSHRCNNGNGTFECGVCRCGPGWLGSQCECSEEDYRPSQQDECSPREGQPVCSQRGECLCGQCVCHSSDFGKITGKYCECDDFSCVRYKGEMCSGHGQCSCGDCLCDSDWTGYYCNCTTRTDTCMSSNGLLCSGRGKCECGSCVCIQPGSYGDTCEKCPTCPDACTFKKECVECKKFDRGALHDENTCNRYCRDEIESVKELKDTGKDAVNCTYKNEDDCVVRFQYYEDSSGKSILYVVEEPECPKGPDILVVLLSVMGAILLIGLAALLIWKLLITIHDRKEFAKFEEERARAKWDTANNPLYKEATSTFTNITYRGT
# T3 sequence (Q9NZQ7 19-238 limits assumed): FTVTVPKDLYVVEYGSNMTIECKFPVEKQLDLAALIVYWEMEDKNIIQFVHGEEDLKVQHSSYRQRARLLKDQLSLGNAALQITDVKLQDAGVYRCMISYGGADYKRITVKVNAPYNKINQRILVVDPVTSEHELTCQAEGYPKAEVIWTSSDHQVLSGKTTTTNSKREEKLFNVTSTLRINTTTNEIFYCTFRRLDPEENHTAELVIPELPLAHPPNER
# T2 sequence (P22629 25-183): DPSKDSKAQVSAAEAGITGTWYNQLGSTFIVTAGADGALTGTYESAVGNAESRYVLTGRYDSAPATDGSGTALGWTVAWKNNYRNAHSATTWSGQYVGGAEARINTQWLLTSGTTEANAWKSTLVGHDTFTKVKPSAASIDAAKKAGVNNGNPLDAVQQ
substance,measurement,setting,value
FLAG-(GS)2-TLSWZEAMDMCTSS-(Q)6-(Fc)^1-H6 (DYKDDDDKGSGSTLSW[O2beY]EAMDMCTSSQQQQQQ-{Fc-H6}; thioether 17-23 (inferred)) [L2-m5-Tras-Fc],"half-life in human blood serum, indicated","[1]; 50% serum, 37° C., readout Shh binding assay",30 to 50 h
same,loss in activity in human blood serum,"[1]; over 24 h, readout Shh binding assay",no loss in activity
"Fc domain: human IgG1 Fc domain alone, negative control [reference compound]",labeling of integrin receptors on MDA-MB-231 cells (in words),[2],minimal or significantly reduced staining; also recorded: negligible non-specific interaction
same,streptavidin binding (in words),streptavidin,no binding
same,inhibition of PD-1/PD-L1 interaction (in words),PD-1/PD-L1 interaction,did not exhibit significant inhibitory activity
same,staining / labeling of PD-L1 receptors on MDA-MB-231 cells (in words),[3],negligible non-specific interaction
same,staining / labeling of PD-L1 receptors on MDA-MB-231 cells (in words),[3]; listed as human IgG1 Fc domain,negligible staining
same,Shh binding (in words),Sonic Hedgehog (Shh),no significant binding below 500 nM
FLAG-(GS)2-WHFSZNWRWLPC-(Q)6-(Fc)^1-H6 (DYKDDDDKGSGSWHFS[pCaaF]NWRWLPCQQQQQQ; thioether 17-24 (inferred); not fully specified (C-terminus)) [cCLP003-Tras-Fc],staining / labeling of PD-L1 receptors on MDA-MB-231 cells (in words),[3],selective labeling of PD-L1 receptors
same,half-life in human blood serum,"[1]; 50% serum, 37° C., readout PD-L1 binding assay",over 24 hrs.
FLAG-(GS)2-CRDRGDYZ-(Q)6-IEGR-(Fc)^1-H6 (DYKDDDDKGSGSCRDRGDY[pCaaF]QQQQQQIEGR-{Fc-H6}; thioether 13-20 (inferred)) [RGD5R (pCaaF)-Tras-Fc],labeling of integrin receptors on MDA-MB-231 cells (in words),[2],label the cells
same,labeling of integrin receptors on MDA-MB-231 cells (in words),[2]; listed as cRGD5R (pCaaF)-Tras-Fc,selective labeling of the integrin receptors
FLAG-(GS)2-CRDRGDYZ-(Q)6-IEGR-(Fc)^1-H6 [RGD5R (pCmF)-Tras-Fc],labeling of integrin receptors on MDA-MB-231 cells (in words),[2]; listed as cRGD5R (pCmF)-Tras-Fc,selective labeling of the integrin receptors
same,receptor affinity and labeling efficiency compared to the corresponding cyclic peptides,[2]; MDA-MB-231 cells,superior receptor affinity and labeling efficiency
